Measurements reported in patent US9688719B2, “Glycogen synthase kinase-3 inhibitors” (Ramot at Tel-Aviv University Ltd., priority 2011, dated 2017).

Assays:
[1] = test system: pIRS-1; assay: In vitro kinase assay of GSK-3β mutants with substrate pIRS-1; assay type: biochemical; conditions: mean ± SEM; WT set to 100%
Method: (§1) HEK-293 cells were grown in Dulbecco's Modified Eagle's Medium (DMEM), supplemented with 10% fetal calf serum (FCS), 2 mM glutamine, 100 units/ml penicillin, and 100 μg/ml streptomycin. HEK-293 cells were transiently transfected with indicated constructs, using calcium phosphate method as described [Ilouz et al. (2006) supra]. Cells were lysed in ice-cold buffer G (20 mM Tris-HCl, pH 7.5, 10 mM β-glycerophosphate, 10% glycerol, 1 mM EGTA, 1 mM EDTA, 50 mM NaF, 5 mM sodium pyrophosphate, 0.5 mM orthovanadate, 1 mM benzamidine, 10 μg/ml leupeptin, 5 μg/ml aprotinin, 1 μg/ml pepstatin, and 0.5% Triton X100). Cell extracts were centrifuged for 30 minutes at 15,000×g. Supernatants were collected, and equal amounts of proteins were boiled with SDS sample buffer and subjected to gel electrophoresis (7.5-12% polyacrylamide gel), transferred to nitrocellulose membranes, and immunoblotted with indicated antibodies. For partial purification, cells were lysed in buffer H (20 mM Tris, pH 7.3, 1 mM EGTA, 1 mM EDTA, 1 mM orthovanadate, 25 μg/ml leupeptin, 25 μg/ml aprotinin, and 25 μg/ml pepstatin A, 500 nM microcystine LR, and 0.25% Triton X100). The lysates were centrifuged at 15,000×g. The resulting supernatants were passed through DE-52 (Whatman, Maidstone, England) mini-columns that were equilibrated with buffer H. GSK-3β proteins were eluted with the same buffer containing 0.02 M NaCl. Equal amounts of proteins were used for in vitro kinase assays.
(§2) The GSK-3β proteins (WT or mutants) were incubated with indicated substrate in a reaction mixture (50 mM Tris-HCl, pH 7.3, 10 mM magnesium acetate, and 0.01% β-mercaptoethanol) together with 100 μM ^32P[γ-ATP] (0.5 μCi/assay) for 15 minutes. Reactions were stopped by spotting on p81 paper (Whatman) washed with phosphoric acid, and counted for radioactivity as previously described [Ilouz et al. (2006) supra]. In assays from cells overexpressing GSK-3 proteins, the activity of the endogenous GSK-3 that was determined in cells transfected with the pCMV4 vector was subtracted from the activity values obtained for WT and mutants.
(§3) The GSK-3β mutants were partially purified by ion exchange chromatography, and their abilities to phosphorylate peptide substrates were tested in in vitro kinase assays. The substrates were: pIRS-1, p9CREB, and pGS-1, phosphorylated peptides derived from the insulin receptor substrate-1 (IRS-1), cAMP responsive element binding protein (CREB), and glycogen synthase, respectively.

[2] = test system: p9CREB; assay: In vitro kinase assay of GSK-3β mutants with substrate p9CREB; assay type: biochemical; conditions: mean ± SEM; WT set to 100%
Method: as §1, §2, §3

[3] = test system: pGS-1; assay: In vitro kinase assay of GSK-3β mutants with substrate pGS-1; assay type: biochemical; conditions: mean ± SEM; WT set to 100%
Method: as §1, §2, §3

[4] = test system: CREB (serine 129) and N'IRS-1 (serine 332); assay: Phosphorylation of protein substrates in HEK-293 cells expressing GSK-3β WT or F93A; assay type: cell-based; conditions: forskolin or PMA treated, versus WT-GSK-3β, FIGS. 1E-H
Method: The role of Phe93 in substrate binding by employing a cellular system and protein substrates (i.e., not peptides) was further explored. To this end, the WT-GSK-3β and F93A mutant were expressed in HEK-293 cells together with GSK-3 substrates CREB or N′IRS-1 (the N-terminal region of IRS-1). Because GSK-3 requires pre-phosphorylation of its substrates, the cells were treated with forskolin to enhance CREB phosphorylation via activation of cAMP dependent kinase (PKA), or with phorbol ester (PMA) to enhance N′IRS-1 phosphorylation via activation of protein kinase C (PKC).
The phosphorylation of CREB at serine 129, and N′IRS-1 at serine 332 (both GSK-3 phosphorylation sites) was then examined.
Thus, HEK293 cells were co-transfected with WT-GSK-3β or F93A plasmids together with construct coding for CREB. Cells were treated with forskolin (10 μM, 1 hour), and cell extracts were subjected to Western blot analysis using anti-phospho CREB (Ser 129/133) antibody, as presented in FIG. 1E. Expression levels of CREB and GSK-3 proteins are indicated. Results are means of three independent experiments ±SEM.
A similar assay was conducted using N′IRS-1 cDNA construct instead of CREB, and cells were treated with PMA (100 nM, 30 minutes). Expression levels of N′IRS-1 and GSK-3β are indicated. Results are means of three independent experiments ±SEM.

B1: F93A: GSK-3β mutant, F93 replaced by alanine (protein)
chain: MSGRPRTTSFAESCKPVQQPSAFGSMKVSRDKDGSKVTTVVATPGQGPDRPQEVSYTDTKVIGNGSFGVVYQAKLCDSGELVAIKKVLQDKRAKNRELQIMRKLDHCNIVRLRYFFYSSGEKKDEVYLNLVLDYVPETVYRVARHYSRAKQTLPVIYVKLYMYQLFRSLAYIHSFGICHRDIKPQNLLLDPDTAVLKLCDFGSAKQLVRGEPNVSYICSRYYRAPELIFGATDYTSSIDVWSAGCVLAELLLGQPIFPGDSGVDQLVEIIKVLGTPTREQIREMNPNYTEFKFPQIKAHPWTKDSSGTGHFTSGVRVFRPRTPPEAIALCSRLLEYTPTARLTPLEACAHSFFDELRDPNVKLPNGRDTPALFNFTTQELSSNPPLATILIPPHARIQAAASTPTNATAASDANTGDRGQTNNAASASASNST
modifications: GSK-3 beta, F93A mutant
notes: GSK-3β mutant, F93 replaced by alanine
Substrate phosphorylation (% of WT GSK-3β), pIRS-1 [1]: 42 ± 13 % of WTGSK-3β | Substrate phosphorylation (% of WT GSK-3β), p9CREB [2]: 46 ± 2 % of WTGSK-3β | Substrate phosphorylation (% of WT GSK-3β), pGS-1 [3]: 13 ± 7 % of WTGSK-3β | phosphorylation of CREB and N'IRS-1 in cells [4]: did not enhance the phosphorylation
